Tests used:
Assay in all cases: SPR
[1] = molecular target: B7-H4 purified monomeric recombinant human protein (Homo sapiens, UniProt Q7Z7D3)
B01 = molecular target: B01
G05 = molecular target: G05
A06 = molecular target: A06
B05 = molecular target: B05

| Kd [1] [nM] | koff [1] [s⁻¹] | kon [1] [M⁻¹ s⁻¹] | Kd (B01) [nM] | koff (B01) [s⁻¹] | Kd (G05) [nM] | koff (G05) [s⁻¹] | Kd (A06) [nM] | koff (A06) [s⁻¹] | Kd (B05) [nM] | koff (B05) [s⁻¹] | Binder |
| --- | --- | --- | --- | --- | --- | --- | --- | --- | --- | --- | --- |
| 7.43 | 0.0033 | 450000 |  |  |  |  |  |  |  |  | parental antibody against B7-H4, scFv-Fc (scFv, V domains shown) VH: EVQLVESGGGVVQPGRSLRLSCAASGFTFSSYSMNWVRQAPGKGLEWVSAISGSGGSTYYADSVKGRFTISRDNSKNTLYLQMNSLRAEDTAVYYCARKRWYGMDVWGQGTTVTVSS VL: SYELTQPPSVSVAPGKTARITCGGNNIGSKSVHWYQQKPGQAPVLVVYDDSDRPSGIPERFSGSNSGNTATLTISRVEAGDEADYYCQVWDSRTYVFGTGTKLTVL |
|  |  |  | < 0.032 | < 1e-05 | < 0.063 | < 1e-05 | < 0.034 | < 1e-05 | < 0.068 | < 1e-05 | B7-H4 purified monomeric recombinant human protein (natural protein) LIIGFGISGRHSITVTTVASAGNIGEDGILSCTFEPDIKLSDIVIQWLKEGVLGLVHEFKEGKDELSEQDEMFRGRTAVFADQVIVGNASLRLKNVQLTDAGTYKCYIITSKGKGNANLEYKTGAFSMPEVNVDYNASSETLRCEAPRWFPQPTVVWASQVDQGANFSEVSNTSFELNSENVTMKVVSVLYNVTINNTYSCMIENDIAKATGDIKVTESEIKRRSHLQLLNSKAS |

— PMC9467613 (mAbs, 2022)
